Test results taken from article PMC5906529, “Conserved Bacterial-Binding Peptides of the Scavenger-Like Human Lymphocyte Receptor CD6 Protect From Mouse Experimental Sepsis” (Frontiers in Immunology, 2018).
Read-outs that look alike come from different tables or passages of the source.

Key:
[1] = Intrinsic (tryptophan) fluorescence binding; design: species or system S. aureus; conditions: excitation 295 nm, peptide/protein 10 µg/mL in PBS pH 7.2, Hill equation fit, mean ± SD of three experiments, read-out: LTA Kd ± σ (apparent Kd)
Method: (§1) To explore the ability of different peptides/proteins to bind LTA (Mr = 14,000, from S. aureus; Sigma) and rough LPS (Re-LPS, Mr = 2,500, from Salmonella minnesota serotype Re 595; Sigma), binding studies were carried out in an AB2 spectrofluorometer with a thermostated cuvette holder (±0.1°C), using 5 mm × 5 mm path length quartz cuvettes as described ([30]). Re-LPS concentration was assessed by quantification of 2-keto-3-deoxyoctulosonic acid ([31]). Peptide/protein samples (10 µg/mL) were titrated with different amounts of a stock solution of either LTA or Re-LPS in phosphate buffered saline (PBS) pH 7.2, and the Trp fluorescence emission spectra recorded with excitation at 295 nm. The fluorescence intensity readings were corrected for the dilution caused by […]. […] The apparent dissociation constant (Kd) of peptide/protein–ligand complexes were obtained by non-linear least-squares fitting to the Hill equation of the change in peptide fluorescence at 353 nm with the amount of added LTA or Re-LPS ([31]): ΔF/ΔFmax = [L]^n/([L]^n + Kd), where ΔF is the change in fluorescence intensity at 353 nm relative to the intensity of free peptide; ΔFmax is the change in fluorescence intensity at saturating LTA or Re-LPS concentrations; [L] is the molar concentration of free ligand; and n is the Hill coefficient. […]

[2] = Solid phase binding assay (ELISA); design: species or system E. coli O111:B4; conditions: biotin-labeled peptides/proteins 5–20 µg/mL, overnight 4°C, HRP-streptavidin/TMB, OD 405–620 nm
Method: (§2) 96-well microtiter plates (Nunc, Roskilde, Denmark) were coated overnight at 4°C with 5 µg/mL of purified LPS (from E. coli O111:B4, Sigma L2630) or LTA (from S. aureus, Sigma L2515) in PBS and then incubated for 2 h at room temperature in blocking solution (20 mM Tris-HCl pH 7.4 plus 0.05% Tween 20 and 1% BSA). Biotin-labeled peptides/proteins (2.5–20 µg/mL) were added and incubated overnight at 4°C in blocking solution. After extensive washing, bound peptides/proteins were detected by the addition of horseradish peroxidase-labeled streptavidin (1:5,000 dilution; DAKO) for 1 h at room temperature. Color was developed by adding 3,3’,5,5’-tetramethylbenzidine liquid substrate (Sigma) and optical density read at 405–620 nm.
(§3) Figure 3 Analysis of the direct binding characteristics of CD6-derived peptides to purified pathogen-associated molecular patterns (PAMPs) from Gram-negative and Gram-positive origin. […] Following overnight incubation at 4°C bound peptides or proteins were developed by addition of horseradish peroxidase–streptavidin and 3,3’,5,5’-tetramethylbenzidine substrate and further readings at OD 405–620 nm. Results are expressed as mean ± SD of duplicates from one representative experiment of three performed. […] (C) Apparent Kd values and Hill coefficients for the binding of peptides and proteins in study to LPS and LTA determined by tryptophan fluorescence. […]

[3] = Endotoxin adsorption on coated Eupergit beads (LAL assay); conditions: peptide/protein immobilized on Eupergit beads, 50 UI/mL LPS, 0–150 min, room temperature, vs HSA- and rshCD5-coated controls, preliminary
Method: CD6.PD1 and CD6.PD2 high affinity (and also CD6.PD3) to LPS and LTA makes these peptides suitable candidates for new supportive non-antibiotic strategies against sepsis. One such possibility would be the adsorption of circulating bacterial toxins by CD6-derived peptides covalently coupled to a solid phase. Preliminary results obtained by incubating an endotoxin solution (50 UI/mL LPS) with Eupergit® beads coated with different CD6-derived peptides (CD6.PD2 and CD6.PD3) or proteins (HSA, rshCD5, and rshCD6) for different periods of time support this approach (Figure S2 in Supplementary Material). […]
Supplementary Figure S1. Binding of rshCD6 protein, and CD6 (CD6.PD1, CD6.PD2, and CD6.PD3) and DMBT-1/SAG (pbs1)-derived peptides to LPS and LTA determined by tryptophan fluorescence. […] Peptide samples (with and without either Re-LPS or LTA) and blank samples (Re-LPS or LT A alone) were ex cited at 295 nm, and the emission spectra recorded from 300 to 400 nm. Results are expressed as the change in peptide fluorescence ( ΔF) at the wavelength of the emission maxima (353 nm for the peptides and 337 nm for rshCD6 protein) in the presence and absence of either Re- LPS or LT A. Results are means ± SD of 3 experiments. Peptide fluorescence changes at 353 nm were fitt ed to the Hill equation. […]

[4] = Intrinsic (tryptophan) fluorescence binding; design: species or system Salmonella minnesota serotype Re 595; conditions: excitation 295 nm, peptide/protein 10 µg/mL in PBS pH 7.2, Hill equation fit, mean ± SD of three experiments, read-out: Re-LPS Kd ± σ (apparent Kd)
Method: as §1

[5] = Solid phase binding assay (ELISA); design: species or system S. aureus; conditions: biotin-labeled peptides/proteins 5–20 µg/mL, overnight 4°C, HRP-streptavidin/TMB, OD 405–620 nm
Method: as §2, §3

[6] = molecular target: the molecule itself; assay: dynamic light scattering; peptide alone, 10 µg/mL in PBS, 25°C, Zetasizer Nano S; hydrodynamic diameter of the particles in solution

| Molecule | Kd [1] [nM] | Binding to solid-phase bound LPS [2] | Endotoxin levels after incubation with coated beads [3] | Kd [4] [nM] | Binding to solid-phase bound LTA [5] | binding result [6] |
| --- | --- | --- | --- | --- | --- | --- |
| rshCD6: recombinant soluble human CD6 ectodomain (protein, UniProt P30203 18-402, looked up, extracellular domain, recombinant soluble human CD6 ectodomain) extracellular domain: HPSPAPPDQLNTSSAESELWEPGERLPVRLTNGSSSCSGTVEVRLEASWEPACGALWDSRAAEAVCRALGCGGAEAASQLAPPTPELPPPPAAGNTSVAANATLAGAPALLCSGAEWRLCEVVEHACRSDGRRARVTCAENRALRLVDGGGACAGRVEMLEHGEWGSVCDDTWDLEDAHVVCRQLGCGWAVQALPGLHFTPGRGPIHRDQVNCSGAEAYLWDCPGLPGQHYCGHKEDAGAVCSEHQSWRLTGGADRCEGQVEVHFRGVWNTVCDSEWYPSEAKVLCQSLGCGTAVERPKGLPHSLSGRMYYSCNGEELTLSNCSWRFNNSNLCSQSLAARVLCSASRSLHNLSTPEVPASVQTVTIESSVTVKIENKESRELMLL | 11 ± 4 | dose-dependent binding | reduced endotoxin levels | 630 ± 10 | dose-dependent binding | – |
| rshCD5: recombinant soluble human CD5 protein, negative control (protein, UniProt P06127 25-372, looked up, extracellular domain, recombinant soluble human CD5 protein, negative control) extracellular domain: RLSWYDPDFQARLTRSNSKCQGQLEVYLKDGWHMVCSQSWGRSSKQWEDPSQASKVCQRLNCGVPLSLGPFLVTYTPQSSIICYGQLGSFSNCSHSRNDMCHSLGLTCLEPQKTTPPTTRPPPTTTPEPTAPPRLQLVAQSGGQHCAGVVEFYSGSLGGTISYEAQDKTQDLENFLCNNLQCGSFLKHLPETEAGRAQDPGEPREHQPLPIQWKIQNSSCTSLEHCFRKIKPQKSGRVLALLCSGFQPKVQSRLVGGSSICEGTVEVRQGAQWAALCDSSSARSSLRWEEVCREQQCGSVNSYRVLDAGDPTSRGLFCPHQKLSQCHELWERNSYCKKVFVTCQDPNP | – | no significant binding | – | – | no significant binding | – |
| GQVEVHFRGVW (source: synthetic peptide, manufactured by ProteoGenix (>80% purity)) [CD6.PD3 peptide] | – | – | – | – | – | binds |
